Laboratory results from patent publication US20220378956A1.

Biological target: soluble uPAR (suPAR) (UniProt Q03405)
Experiment: SPR (Biacore 2000), antibody captured on protein A/G surface, suPAR injected, 25 C, 1:1 Langmuir fit

Row | Kd | Binder
1 | 0.28 nM | Human Engineered ATN-658 variant HE ATN-3 (antibody, V domains shown) VH: EVQLVQSGPEVKKTGASVKISCKASGYSFTSYYMHWVRQAHGQGLEWIGEINPYNGGASYNQKIQGRATFTVDTSTSTAYMEFSSLRSEDTAVYYCARSIYGHSVLDYWGQGTLVTVSS VL: DVVMTQSPLSLSVTIGEPASISCRSSQSLLDSDGKTYLNWLLQKPGQSPKRLIYLVSKRDSGVPDRFSGSGSGTDFTLKISRVEAEDVGVYYCWQGTHFPLTFGQGTKLEIK
2 | 0.28 nM | Human Engineered ATN-658 variant HE ATN-1 (antibody, human IgG1, V domains shown) VH: EVQLVQSGPEVVKTGASVKISCKASGYSFTSYYMHWVKQAHGQGLEWIGEINPYNGGASYNQKIKGRATFTVDTSTRTAYMEFSSLRSEDTAVYYCARSIYGHSVLDYWGQGTLVTVSS VL: DVVMTQSPLSLSVTIGEPASISCRSSQSLLDSDGKTYLNWLLQKPGQSPKRLIYLVSKRDSGVPDRFSGSGSGTDFTLKISRVEAEDVGVYYCWQGTHFPLTFGQGTKLEIK
